Experimental data published in US20220251215A1 (Regeneron, published 2022).

How the values were obtained:
[1] = target: HLA-A2 on T2 cells pulsed with ZDHHC1 (376-384) peptide (human); assay: flow cytometry, 10 ug/ml, pulsed T2 cells
[2] = target: HLA-A2 on T2 cells pulsed with EARS2: 306-314 peptide (human); assay: flow cytometry, 10 ug/ml, pulsed T2 cells
[3] = target: HLA-A2 on T2 cells pulsed with GRID1: 7-15 peptide (human); assay: flow cytometry, 10 ug/ml, pulsed T2 cells
[4] = target: HLA-A2 on T2 cells pulsed with ITCH (807-815) peptide (human); assay: flow cytometry, 10 ug/ml, pulsed T2 cells
[5] = target: HLA-A2 on T2 cells pulsed with FBXL22: 4-12 peptide (human); assay: flow cytometry, 10 ug/ml, pulsed T2 cells
[6] = target: T1, HLA-A2 on T2 cells pulsed with NY-ESO-1:157-165, wt peptide (C165) (human); assay: flow cytometry, 10 ug/ml, pulsed T2 cells
T1 construct: also called T2 Pulsed NY-ESO-1_157-165

[7] = target: HLA-A2 on T2 cells pulsed with URB1: 1853-1861 peptide (human); assay: flow cytometry, 10 ug/ml, pulsed T2 cells
[8] = target: HLA-A2 on T2 cells pulsed with MAGEH1: 90-98 peptide (human); assay: flow cytometry, 10 ug/ml, pulsed T2 cells
[9] = target: HLA-A2 on T2 cells pulsed with BCL9L: 1351-1359 peptide (human); assay: flow cytometry, 10 ug/ml, pulsed T2 cells
[10] = target: T2, monomeric HLA-A2:NY-ESO-1(156-165) (V at position 165) peptide complex, 2906; assay: SPR, 25 C, antibody captured, monomeric complex injected;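 note: antibody held on sensor chip via immobilized anti-human or anti-mouse Fc antibody, rate constants derived by fitting sensorgrams to a 1:1 binding model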
T2 construct: also called soluble HLA-A2:NY-ESO-1 peptide complex

[11] = target: T1, HLA-A2 on T2 cells pulsed with …; assay: flow cytometry, peptide-pulsed T2 cells
[12] = target: T2, monomeric HLA-A2:NY-ESO-1(156-165) (V …); assay: SPR, 37 C, antibody captured, monomeric complex injected

B1: mAb28128P (antibody, human IgG4 S228P, kappa, V domains shown)
VH: EVQLVESGGGVVQPGGSLRLSCAASGFIFDDYAMHWVRQVPGKGLEWISLSSGGGGGTYYADPVKGRFTISRDNSKNSLHLQMNSLRAEDTASYYCAKDMVFGVVTPDFFFAMDVWGQGTTVTVSS
VL: DIQMTQSPSSLSASVGDRVTITCRASQSISTYLNWYQQKPGKAPKLLIYGASSLQRGVPSRFSGSGSGTDFTLTISSLQPEDFATYYCQQTYSTPPITFGQGTRLEIKR
ratio of MFI, pulsed to unpulsed [1]: 1.6 ratio
ratio of MFI, pulsed to unpulsed [2]: 0.6 ratio
ratio of MFI, pulsed to unpulsed [3]: 1.6 ratio
ratio of MFI, pulsed to unpulsed [4]: 1 ratio
ratio of MFI, pulsed to unpulsed [5]: 1.3 ratio
ratio of MFI, pulsed to unpulsed [6]: 138 ratio
ratio of MFI, pulsed to unpulsed [7]: 0.6 ratio
ratio of MFI, pulsed to unpulsed [8]: 0.5 ratio
ratio of MFI, pulsed to unpulsed [9]: 3 ratio
Kd [10]: 160 pM
koff [10]: 0.000185 s⁻¹
kon [10]: 1.16e+06 M⁻¹ s⁻¹
t½ [10]: 62.5 min
EC50 [11]: 320 pM
Kd [12]: 293 pM
koff [12]: 0.000441 s⁻¹
kon [12]: 1.5e+06 M⁻¹ s⁻¹
t½ [12]: 26.2 min
